Results published in IntAct's records for PubMed 16339850.

B1: Zinc finger protein CONSTANS-LIKE 3 (Arabidopsis thaliana (Mouse-ear cress)), Q9SK53 (parent)
chain: MASSSRLCDSCKSTAATLFCRADAAFLCGDCDGKIHTANKLASRHERVWLCEVCEQAPAHVTCKADAAALCVTCDRDIHSANPLSRRHERVPITPFYDAVGPAKSASSSVNFVDEDGGDVTASWLLAKEGIEITNLFSDLDYPKIEVTSEENSSGNDGVVPVQNKLFLNEDYFNFDLSASKISQQGFNFINQTVSTRTIDVPLVPESGGVTAEMTNTETPAVQLSPAEREARVLRYREKRKNRKFEKTIRYASRKAYAEMRPRIKGRFAKRTDSRENDGGDVGVYGGFGVVPSF
partner: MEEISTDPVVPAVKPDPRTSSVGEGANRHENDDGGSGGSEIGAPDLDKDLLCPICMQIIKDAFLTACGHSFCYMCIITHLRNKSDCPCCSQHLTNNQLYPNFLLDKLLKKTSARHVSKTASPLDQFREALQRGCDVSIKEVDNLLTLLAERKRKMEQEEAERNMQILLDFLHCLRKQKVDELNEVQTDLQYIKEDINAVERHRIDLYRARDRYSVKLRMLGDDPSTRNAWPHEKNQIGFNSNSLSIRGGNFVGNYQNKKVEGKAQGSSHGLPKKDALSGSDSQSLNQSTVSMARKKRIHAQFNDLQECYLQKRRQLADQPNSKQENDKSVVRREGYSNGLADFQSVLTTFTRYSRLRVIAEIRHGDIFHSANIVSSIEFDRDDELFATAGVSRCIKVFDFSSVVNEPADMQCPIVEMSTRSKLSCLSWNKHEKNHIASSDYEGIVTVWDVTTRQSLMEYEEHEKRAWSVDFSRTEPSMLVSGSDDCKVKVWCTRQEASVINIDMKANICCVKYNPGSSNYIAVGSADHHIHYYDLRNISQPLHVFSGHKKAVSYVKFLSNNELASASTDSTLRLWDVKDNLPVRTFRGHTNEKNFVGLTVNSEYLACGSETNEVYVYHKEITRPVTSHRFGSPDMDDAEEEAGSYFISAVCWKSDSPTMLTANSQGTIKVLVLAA
B2: E3 ubiquitin-protein ligase COP1 (Arabidopsis thaliana (Mouse-ear cress)), P43254 (parent)
chain: B1 partner
partner: B1 chain

Variants of: B1
Conditions: with cop1_arath COP1, P43254

Question: How did the “effect of a mutation on the interaction” value turn out when V291A;P292A was run?
Answer: disrupting interaction

Variants of: B2
Conditions: with col3_arath COL3, Q9SK53

Question: How did the “effect of a mutation on the interaction” value turn out when G524E was run?
Answer: disrupting interaction strength
